FireProtDB (doi:10.1007/s10930-006-9055-y)

Conditions: Weissella confusa, Thermal, reversible: No, whole UniProt chain shown
[1] = pH 6, DSC, Natrium phosphate Imidazol 50 mM 250 mM, NaCl 300 mM
[2] = pH 7, DSC, Natrium phosphate Imidazol 50 mM 250 mM, NaCl 300 mM
[3] = pH 8, DSC, Natrium phosphate Imidazol 50 mM 250 mM, NaCl 300 mM

B1: L-2-hydroxyisocaproate dehydrogenase wild type, P14295 (protein)
chain: MARKIGIIGLGNVGAAVAHGLIAQGVADDYVFIDANEAKVKADQIDFQDAMANLEAHGNIVINDWAALADADVVISTLGNIKLQQDNPTGDRFAELKFTSSMVQSVGTNLKESGFHGVLVVISNPVDVITALFQHVTGFPAHKVIGTGTLLDTARMQRAVGEAFDLDPRSVSGYNLGEHGNSQFVAWSTVRVMGQPIVTLADAGDIDLAAIEEEARKGGFTVLNGKGYTSYGVATSAIRIAKAVMADAHAELVVSNRRDDMGMYLSYPAIIGRDGVLAETTLDLTTDEQEKLLQSRDYIQQRFDEIVDTL
For B1, the Tm (pH 6, CD, Potassium phosphate 5 mM) was 56.8 °C, the Tm [1] was 62.5 °C and the “unfolding enthalpy (calorimetric)” value [1] was 222 kcal/mol. For the same protein, the “unfolding enthalpy (van 't Hoff)” value [1] was 227 kcal/mol, the Tm (pH 6, DSC, Potassium phosphate 5 mM) was 57.2 °C and the Tm (pH 7, CD, Potassium phosphate 5 mM) was 60.2 °C. The Tm [2] was 55.1 °C, the “unfolding enthalpy (calorimetric)” value [2] was 203 kcal/mol and the “unfolding enthalpy (van 't Hoff)” value [2] was 202 kcal/mol. The Tm (pH 7, DSC, Potassium phosphate 5 mM) was 59.6 °C, the Tm (pH 8, CD, Potassium phosphate 5 mM) was 56.2 °C and the Tm [3] was 44.1 °C. The “unfolding enthalpy (calorimetric)” value [3] was 221 kcal/mol and the “unfolding enthalpy (van 't Hoff)” value [3] was 225 kcal/mol.
